According to publication PMC2686405 (The Journal of Cell Biology, 2009):

Molecular target: SNARE complex containing syntaxin-1A(2-253), synaptobrevin-2(29-93), SNAP-25(11-82) and SNAP-25(141-203) (rat | human, UniProt P32851;P63045;P60880)
Test: SEC

Chain of SNARE complex containing syntaxin-1A(2-253), synaptobrevin-2(29-93), SNAP-25(11-82) and SNAP-25(141-203) (P32851 2-253, chain 1 of 4): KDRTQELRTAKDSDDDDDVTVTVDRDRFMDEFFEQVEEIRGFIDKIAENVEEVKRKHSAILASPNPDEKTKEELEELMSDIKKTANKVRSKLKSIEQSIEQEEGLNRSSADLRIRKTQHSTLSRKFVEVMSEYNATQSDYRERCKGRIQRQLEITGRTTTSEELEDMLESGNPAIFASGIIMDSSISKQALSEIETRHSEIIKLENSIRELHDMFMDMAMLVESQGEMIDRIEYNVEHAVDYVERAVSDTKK
Chain of SNARE complex containing syntaxin-1A(2-253), synaptobrevin-2(29-93), SNAP-25(11-82) and SNAP-25(141-203) (P63045 29-93, chain 2 of 4): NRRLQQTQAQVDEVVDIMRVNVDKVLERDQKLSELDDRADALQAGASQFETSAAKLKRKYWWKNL
Chain of SNARE complex containing syntaxin-1A(2-253), synaptobrevin-2(29-93), SNAP-25(11-82) and SNAP-25(141-203) (P60880 11-82, chain 3 of 4): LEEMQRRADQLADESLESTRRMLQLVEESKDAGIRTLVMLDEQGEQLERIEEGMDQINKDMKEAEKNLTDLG
Chain of SNARE complex containing syntaxin-1A(2-253), synaptobrevin-2(29-93), SNAP-25(11-82) and SNAP-25(141-203) (P60880 141-203, chain 4 of 4): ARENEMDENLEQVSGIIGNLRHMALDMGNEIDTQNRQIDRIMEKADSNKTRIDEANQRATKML

B1: complexin-1(26-83) (domain or fragment)
chain: KDPDAAKKEEERQEALRQAEEERKAKYAKMEAEREVMRQGIRDKYGIKKKEEREAEAQ
B1: binds.
